The values that follow are results of earlier work, collected in paper PMC9709720, “An orally available small molecule that targets soluble TNF to deliver anti-TNF biologic-like efficacy in rheumatoid arthritis” (Frontiers in Pharmacology, 2022).

The series deals with free soluble TNF in human synovial tissue. Further details: method as in Tani et al. (2013). The following applies: one third of reported steady state concentration, synovial fluid; ref Tani et al. (2013).

For the substance etanercept, the “Css^f used in model” value is on record as 2.2 nM.

In the case of infliximab, the “Css^f used in model” value is 17 nM.
